{"source": "paper PMC11272045", "target": "recombinant his-tag subtilisin-like protease-1 (SspA-1) (Streptococcus suis serotype 2 strain 05ZYH33)", "experiment": "MST", "data": [{"substance": "recombinant glutathione S-transferase (GST)-tagged human TLR2 (from UniProt O60603 21-784) (receptor)", "values": [{"measurement": "Kd", "value": 24.3, "unit": "nM"}]}]}
